Biological target: T1, Rat TRPV2 (transient receptor potential vanilloid 2 channel), full length, C-terminal 1D4 tag (rat), Q9WUD2
T1 chain: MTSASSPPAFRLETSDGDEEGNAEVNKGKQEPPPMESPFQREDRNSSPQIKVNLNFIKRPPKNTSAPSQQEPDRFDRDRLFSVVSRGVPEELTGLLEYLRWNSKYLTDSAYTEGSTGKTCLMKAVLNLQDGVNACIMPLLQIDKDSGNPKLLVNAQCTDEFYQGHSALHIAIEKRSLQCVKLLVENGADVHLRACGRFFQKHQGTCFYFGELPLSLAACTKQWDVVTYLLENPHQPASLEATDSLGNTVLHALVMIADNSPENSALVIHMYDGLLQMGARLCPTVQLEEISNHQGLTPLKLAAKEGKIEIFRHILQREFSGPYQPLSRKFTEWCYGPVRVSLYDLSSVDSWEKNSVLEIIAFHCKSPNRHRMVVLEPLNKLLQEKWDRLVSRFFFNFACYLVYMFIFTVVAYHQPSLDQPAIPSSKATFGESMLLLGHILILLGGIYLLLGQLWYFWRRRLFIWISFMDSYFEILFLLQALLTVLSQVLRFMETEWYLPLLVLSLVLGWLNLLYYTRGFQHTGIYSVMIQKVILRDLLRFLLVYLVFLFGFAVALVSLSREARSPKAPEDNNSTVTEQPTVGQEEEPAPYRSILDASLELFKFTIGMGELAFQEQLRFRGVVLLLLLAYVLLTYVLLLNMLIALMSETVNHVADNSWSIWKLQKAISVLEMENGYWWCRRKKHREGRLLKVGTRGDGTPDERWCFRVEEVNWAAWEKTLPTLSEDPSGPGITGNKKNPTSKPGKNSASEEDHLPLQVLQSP
Assay: high-speed atomic force microscopy (HS-AFM); TRPV2 reconstituted into soy polar lipid membranes (LPR 0.5-0.7) on mica; imaging buffer 20 mM Hepes pH 8.0, 150 mM NaCl; contacts between neighbouring tetramers scored as connected or not in binarised frames; dwell times fitted with a single exponential; thick continuous connections excluded
Details: remark: other sources report otherwise

connection lifetime time constant: 2.2 s
B1: Rat TRPV2 (transient receptor potential vanilloid 2 channel), full length, C-terminal 1D4 tag, Q9WUD2 1-761 (natural protein)
chain: T1 chain

From publication PMC10516966
